Data published in patent US20060020118A1.

Target: human IFNAR1 (first human interferon-alpha receptor), membrane form on cells (human) (UniProt P17181)
Assay: flow cytometry, fluoresceinated control IgG on U266 cells, no soluble hIFNAR1

UniProt P17181, sequence (P17181 28-557): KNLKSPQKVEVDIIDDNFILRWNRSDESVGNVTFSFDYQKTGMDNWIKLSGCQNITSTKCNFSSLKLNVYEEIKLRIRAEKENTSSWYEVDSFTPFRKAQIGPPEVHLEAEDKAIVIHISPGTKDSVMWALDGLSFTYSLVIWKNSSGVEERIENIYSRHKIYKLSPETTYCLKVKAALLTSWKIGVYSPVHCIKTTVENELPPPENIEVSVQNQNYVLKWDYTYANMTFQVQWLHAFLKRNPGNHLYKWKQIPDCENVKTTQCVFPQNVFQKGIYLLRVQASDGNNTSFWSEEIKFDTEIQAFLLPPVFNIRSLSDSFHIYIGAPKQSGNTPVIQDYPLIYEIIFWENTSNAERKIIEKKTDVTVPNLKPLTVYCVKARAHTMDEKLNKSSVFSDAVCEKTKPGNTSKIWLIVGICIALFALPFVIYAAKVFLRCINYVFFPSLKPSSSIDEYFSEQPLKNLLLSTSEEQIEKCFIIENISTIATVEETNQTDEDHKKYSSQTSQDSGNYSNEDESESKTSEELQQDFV

Mean Fluorescence Intensity: 2.99
Substance: fluoresceinated control IgG (antibody)
